In patent publication US20110014616 one finds activity data, which are given here for three substances.

Common to all, as to assay: cell_activity
Data set [1] relates to CCR5-specific ZFN pair (synthetic construct). The settings on record: K562, unsorted, Cel-1 assay; 37.5% after SSA sorting.
For data set [2], the system named is Factor IX-specific ZFN pair (synthetic construct). To be noted: K562, unsorted, Cel-1 assay; 40.79% after SSA sorting.
In data set [3] the test system is WAS-specific ZFN pair (synthetic construct). The settings on record: K562, Cel-1 assay, day 3.

As for CCR5 ZFN target site, the activity in data set [1] is 25 % NHEJ.

Factor IX ZFN target site showed an activity in data set [2] of 17.9 % NHEJ. As to WAS ZFN target site, the activity in data set [3] is 17.9 % NHEJ.
